Laboratory results reported in patent publication US20220073608A1 (JIANGSU HUAIYU PHARMACEUTICAL, published 2022).
Changes are numbered by the printed parent chain.

What was measured:
[1] = target: T1, mouse SEMA4D, full length, on CHO-K1 cells (CHO-K1 mSEMA4D) (mouse, UniProt O09126 24-861); assay: FACS, CHO-K1 mSEMA4D cells; Ab 0.00427 nM
T1 construct: whole, on cells; also called murine SEMA4D recombinant cells
T1 sequence (looked up): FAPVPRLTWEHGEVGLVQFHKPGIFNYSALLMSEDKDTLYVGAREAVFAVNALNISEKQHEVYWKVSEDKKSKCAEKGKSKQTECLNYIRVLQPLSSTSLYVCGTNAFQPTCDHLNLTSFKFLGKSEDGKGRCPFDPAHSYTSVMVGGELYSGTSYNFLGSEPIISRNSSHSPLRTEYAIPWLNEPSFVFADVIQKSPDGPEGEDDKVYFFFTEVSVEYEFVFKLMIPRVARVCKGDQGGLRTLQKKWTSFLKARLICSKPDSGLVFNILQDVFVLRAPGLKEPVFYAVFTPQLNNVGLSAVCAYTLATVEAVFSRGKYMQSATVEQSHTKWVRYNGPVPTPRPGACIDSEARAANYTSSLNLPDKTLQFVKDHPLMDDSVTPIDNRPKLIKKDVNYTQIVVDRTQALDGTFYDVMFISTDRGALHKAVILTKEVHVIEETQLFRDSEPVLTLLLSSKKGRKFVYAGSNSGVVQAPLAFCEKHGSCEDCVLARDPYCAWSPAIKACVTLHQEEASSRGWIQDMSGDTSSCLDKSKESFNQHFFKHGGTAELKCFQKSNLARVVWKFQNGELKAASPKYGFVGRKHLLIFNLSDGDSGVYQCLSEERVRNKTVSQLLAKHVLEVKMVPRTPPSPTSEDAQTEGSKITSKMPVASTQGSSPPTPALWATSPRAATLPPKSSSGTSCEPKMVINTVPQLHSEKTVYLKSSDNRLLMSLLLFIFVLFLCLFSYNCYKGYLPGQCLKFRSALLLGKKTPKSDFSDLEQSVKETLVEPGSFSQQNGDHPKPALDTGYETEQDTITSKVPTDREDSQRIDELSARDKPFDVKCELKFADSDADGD
Procedure: (§1) After the cells were counted, they were diluted with PBS to 2×10⁶ cells per milliliter. After washing, 100 μL of diluted and purified leading antibodies was added to each well and the plate was incubated for 1 hour on ice. […] Cells were washed 2 times by centrifugation with FACS buffer. The cells were suspended with 200 μL of FACS buffer, FACS (FACS Verse, purchased from BD) was used to detect and analyze the results.

[2] = target: T2, human SEMA4D, full length, on CHO-K1 cells (CHO-K1 hSEMA4D) (human, UniProt Q92854 22-862); assay: FACS, CHO-K1 hSEMA4D cells; Ab 0.000853 nM
T2 construct: whole, on cells; also called human SEMA4D recombinant cells
T2 sequence (looked up): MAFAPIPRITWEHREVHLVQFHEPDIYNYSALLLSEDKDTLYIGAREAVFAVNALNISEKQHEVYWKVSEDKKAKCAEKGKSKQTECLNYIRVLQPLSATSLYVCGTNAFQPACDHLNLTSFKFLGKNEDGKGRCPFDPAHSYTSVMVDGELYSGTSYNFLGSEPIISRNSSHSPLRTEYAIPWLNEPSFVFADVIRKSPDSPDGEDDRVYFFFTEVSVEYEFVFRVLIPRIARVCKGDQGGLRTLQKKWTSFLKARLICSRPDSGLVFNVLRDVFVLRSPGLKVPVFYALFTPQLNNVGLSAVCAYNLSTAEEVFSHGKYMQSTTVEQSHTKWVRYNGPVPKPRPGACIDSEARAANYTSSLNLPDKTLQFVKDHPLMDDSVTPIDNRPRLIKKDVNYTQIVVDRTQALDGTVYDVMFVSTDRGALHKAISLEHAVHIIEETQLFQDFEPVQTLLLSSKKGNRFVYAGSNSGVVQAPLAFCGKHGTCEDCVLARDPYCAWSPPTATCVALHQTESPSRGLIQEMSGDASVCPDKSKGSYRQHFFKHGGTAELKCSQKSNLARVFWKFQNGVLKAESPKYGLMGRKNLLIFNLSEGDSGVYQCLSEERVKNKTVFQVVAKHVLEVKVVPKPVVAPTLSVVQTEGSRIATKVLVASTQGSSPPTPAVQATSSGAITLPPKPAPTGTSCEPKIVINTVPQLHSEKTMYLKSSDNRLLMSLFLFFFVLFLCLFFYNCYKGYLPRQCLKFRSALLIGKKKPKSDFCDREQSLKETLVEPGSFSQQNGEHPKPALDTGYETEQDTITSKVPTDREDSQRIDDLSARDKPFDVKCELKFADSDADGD
Procedure: (§2) The medium was aspirated, the cells were washed once with PBS buffer (purchased from Invitrogen), and then treated with cell dissociation fluid (TrypLE™ Express Enzyme, purchased from Life technology), and the cells were collected. After the cells counted, the cells were washed once with PBS phosphate buffer, and diluted to 3×10⁶ cells per milliliter, and added to the 96-well FACS reaction plate as 100 μL per well. 2% (w/w) fetal calf serum was added to PBS phosphate buffer as FACS buffer, with which the cells were washed once by centrifugation at 2000 rpm 4° C. 100 μL of diluted and purified leading antibodies was added to each well and the plate was incubated for 1 hour on ice. […] Cells were washed 2 times by centrifugation with FACS buffer. The cells were suspended with 200 μL of FACS buffer, and FACS (FACS Verse, purchased from BD) was used to detect and analyze the results.

[3] = target: T2, human SEMA4D, full length, on CHO-K1 …; assay: FACS, CHO-K1 hSEMA4D cells; Ab 13.3 nM
Procedure: as §2

[4] = target: T1, mouse SEMA4D, full length, on CHO-K1 …; assay: FACS, CHO-K1 mSEMA4D cells; Ab 2.67 nM
Procedure: as §1

B1: 42B7G2 (antibody, V domains shown)
VH: QVQLQQSGAELARPGASVKLSCKASGYTFTDYGISWVKQRTGQGLEWIGEIYLRNDNSYYNEKFKGKATLTADKSSNTAYMELRSLTSEDSAVYFCARWGDHGNNYEDAMDYWGQGTSVTVSS
VL: DIVLTQSPASLAMSLGKRATISCRASESVSIIGSNLIHWYQQKPGQPPKLLIYHASNLETGVPARFSGSGSRTDFTLTIDPVEEDDVAIYYCLQSRKVPYTFGGGTKLEIK
notes: Mouse monoclonal antibody purified from hybridoma supernatant on protein A
MFI [1]: 30.3 | MFI [2]: 41.2 | MFI [3]: 3950 | MFI [4]: 31

B2: 37F11F9 (antibody, V domains shown)
VH: EVQLQQSGPVLVKPGASVKMSCKASGYTFTDYYMNWVKQSHGKSLEWIGLINPYSGGSTFNQKFKAKATLTVDKSSSSAYMDLNSLTSEDSAVYYCARVGDGYYGVTHGMDYWGQGTSVTVSS
VL: DIVMTPSQKFMSTTVGDRVSITCKASQNVGTAVAWYQQKPGQSPTILIYSASNRYTGVPDRFTGSGSGTDFTLTISNMKSEDLADYFCQQYYIYPFTFAAGTKLELK
notes: as for B1
MFI [1]: 30.1 | MFI [2]: 38.2 | MFI [3]: 3960 | MFI [4]: 30.6

B3: 32C8F10 (antibody, V domains shown)
VH: EVQLQQSGAELVRPGASVKLSCTASGFNIKDEYIHWVKQRPEQGLEWIGWIDPANGHTEYASRFQAKATITADTSSNTAYLQLSSLTSEDTAVYYCTTGDYDGFAYWGQGTLVTVST
VL: QIVLTQSPAIMSASPGEKVTISCSARSSVSYMYWYQQKPGSSPKPWIYRTSNLASGVPARFSGSGSGTSYSLTISSMEAEDAATYYCQHYHTYPYTFGGGTKLEIK
notes: as for B1
MFI [1]: 30.2 | MFI [2]: 47.3 | MFI [3]: 7830 | MFI [4]: 30.7

B4: 31G10C5 (antibody, V domains shown)
VH: B3 VH with E32D, T58I, R63N, A105T
VL: B3 VL
notes: as for B1
MFI [1]: 29.8 | MFI [2]: 47 | MFI [3]: 6180 | MFI [4]: 30.1

B5: 31C11G2 (antibody, V domains shown)
VH: B3 VH with A105V
VL: B3 VL with S22F
notes: as for B1
MFI [1]: 31.4 | MFI [2]: 46.7 | MFI [3]: 6670 | MFI [4]: 30.5

B6: 37C4F7 (antibody, V domains shown)
VH: EFQLQQSGPEVVKPGASVKISCKASGYSFTDYNMNWMKQSKGKSLEWIGVINPNYGTTTYNQNFKGKATLTVDQSSSTAYMQLNSLTSEDSAVYYCARDMYYVYAYYTMDYWGQGTSVTVSS
VL: DVVMTQTPLSLPVSLGDQASISCRSSQSLVHSNGHTYLHWYLQRPGQSPTLLIYKVSNRFSGVPDRFSGSGSGTDFTLKISRVEAEDLGVYFCSQGTHVPWTFGGGTKLEIK
notes: as for B1
MFI [1]: 30.5 | MFI [2]: 36.9 | MFI [3]: 4290 | MFI [4]: 30

B7: 38H2E3 (antibody, V domains shown)
VH: B6 VH with N52S, N54D, G66D, R98K, Q114H
VL: B6 VL with F67V, W101R
notes: as for B1
MFI [1]: 29.9 | MFI [2]: 36.7 | MFI [3]: 4630 | MFI [4]: 30.7
